Results from patent US5689048.
Values belong to the substance of their own block, whether it stands above or below them.

Tests used:
[1] = molecular target: Mj-AMP2 (Mirabilis jalapa--Antimicrobial Protein 2) (Mirabilis jalapa)
[2] = molecular target: Mj-AMP1 (Mirabilis jalapa--Antimicrobial Protein 1) (Mirabilis jalapa)

Relative antifungal activity (shown as % of control activity) after Trypsin digestion (% of control activity) [1]: 100
Relative antifungal activity (shown as % of control activity) after Trypsin digestion (% of control activity) [2]: 75
Substance: Trypsin (enzyme)

Relative antifungal activity (shown as % of control activity) after Pronase E digestion (% of control activity) [1]: 25
Relative antifungal activity (shown as % of control activity) after Pronase E digestion (% of control activity) [2]: 50
Substance: Pronase E (enzyme)

Relative antifungal activity (shown as % of control activity) after Chymotrypsin digestion (% of control activity) [1]: 50
Relative antifungal activity (shown as % of control activity) after Chymotrypsin digestion (% of control activity) [2]: 12
Substance: Chymotrypsin (enzyme)

Relative antifungal activity (shown as % of control activity) after Proteinase K digestion (% of control activity) [1]: 100
Relative antifungal activity (shown as % of control activity) after Proteinase K digestion (% of control activity) [2]: 100
Substance: Proteinase K (from UniProt P06873) (enzyme)
